Reference: patent US20240400635A1

Target: FGF receptor/BKL complex (human) (UniProt Q86Z14)
Test: cell-based or functional assay

Sequence of FGF receptor/BKL complex (human) (Q86Z14 whole entry, one chain of several): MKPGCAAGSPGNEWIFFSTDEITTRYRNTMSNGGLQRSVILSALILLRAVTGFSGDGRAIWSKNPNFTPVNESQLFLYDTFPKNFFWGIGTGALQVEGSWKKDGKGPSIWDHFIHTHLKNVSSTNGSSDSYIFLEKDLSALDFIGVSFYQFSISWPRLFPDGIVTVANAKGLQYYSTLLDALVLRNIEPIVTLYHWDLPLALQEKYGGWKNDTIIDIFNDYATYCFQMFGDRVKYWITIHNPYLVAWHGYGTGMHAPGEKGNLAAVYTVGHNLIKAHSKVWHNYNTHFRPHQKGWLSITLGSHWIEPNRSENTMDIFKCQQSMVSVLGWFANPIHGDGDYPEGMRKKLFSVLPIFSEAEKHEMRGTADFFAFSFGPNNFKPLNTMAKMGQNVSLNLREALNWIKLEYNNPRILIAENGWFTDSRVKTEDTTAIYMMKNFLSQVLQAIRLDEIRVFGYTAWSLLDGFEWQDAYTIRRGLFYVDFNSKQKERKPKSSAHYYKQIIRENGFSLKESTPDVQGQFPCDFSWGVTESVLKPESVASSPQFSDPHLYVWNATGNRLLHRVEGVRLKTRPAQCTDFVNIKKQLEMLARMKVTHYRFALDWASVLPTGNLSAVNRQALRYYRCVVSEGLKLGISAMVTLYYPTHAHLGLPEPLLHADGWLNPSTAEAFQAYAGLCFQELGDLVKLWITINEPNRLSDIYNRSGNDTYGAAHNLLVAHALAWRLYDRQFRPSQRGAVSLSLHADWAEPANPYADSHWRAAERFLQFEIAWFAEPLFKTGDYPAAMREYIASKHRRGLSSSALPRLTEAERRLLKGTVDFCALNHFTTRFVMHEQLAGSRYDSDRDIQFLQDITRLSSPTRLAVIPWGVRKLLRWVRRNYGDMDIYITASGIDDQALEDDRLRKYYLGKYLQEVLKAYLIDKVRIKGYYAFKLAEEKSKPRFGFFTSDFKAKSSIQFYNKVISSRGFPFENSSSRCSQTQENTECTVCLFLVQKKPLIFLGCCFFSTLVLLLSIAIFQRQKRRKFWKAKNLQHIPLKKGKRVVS

FGF1 receptor potency [EC50] nM 0.1% HSA [nM] | FGF21 receptor potency [EC50] nM 0% HSA [nM] | Substance
0.44 | 0.52 | Met-FGF21 (Comparator) SEQ ID NO: 36 (from UniProt Q9NSA1 29-209) (ligand)
10.1 | 2.5 | S{Beta-180}-[2-[2-[[2-[2-[2-[[2-[2-[2-[[(4S)-4-carboxy-4-(17-carboxyheptadecanoyl-amino)butanoyl]amino]ethoxy]ethoxy]acetyl]amino]ethoxy]ethoxy]acetyl]amino]-ethylamino]-2-oxoethyl]-Ala[Gln121,Leu168,Cys180]FGF21(1-181) (from UniProt Q9NSA1 28-209) (ligand)
